The data set concerns the molecule itself. In words: cryo-EM imaging with calculated diffraction patterns (layer lines); tubulin or microtubules with LRRK2^RCKW (WT or mutant), with or without MLi-2; layer lines in diffraction patterns calculated from images of single filaments, 2D class averages.

Changes are numbered by the printed parent chain. Numbers in names are those of the source.

B1: LRRK2^RCKW-S2345D (domain or fragment, human)
chain: KKAVPYNRMKLMIVGNTGSGKTTLLQQLMKTKKSDLGMQSATVGIDVKDWPIQIRDKRKRDLVLNVWDFAGREEFYSTHPHFMTQRALYLAVYDLSKGQAEVDAMKPWLFNIKARASSSPVILVGTHLDVSDEKQRKACMSKITKELLNKRGFPAIRDYHFVNATEESDALAKLRKTIINESLNFKIRDQLVVGQLIPDCYVELEKIILSERKNVPIEFPVIDRKRLLQLVRENQLQLDENELPHAVHFLNESGVLLHFQDPALQLSDLYFVEPKWLCKIMAQILTVKVEGCPKHPKGIISRRDVEKFLSKKRKFPKNYMSQYFKLLEKFQIALPIGEEYLLVPSSLSDHRPVIELPHCENSEIIIRLYEMPYFPMGFWSRLINRLLEISPYMLSGRERALRPNRMYWRQGIYLNWSPEAYCLVGSEVLDNHPESFLKITVPSCRKGCILLGQVVDHIDSLMEEWFPGLLEIDICGEGETLLKKWALYSFNDGEEHQKILLDDLMKKAEEGDLLVNPDQPRLTIPISQIAPDLILADLPRNIMLNNDELEFEQAPEFLLGDGSFGSVYRAAYEGEEVAVKIFNKHTSLRLLRQELVVLCHLHHPSLISLLAAGIRPRMLVMELASKGSLDRLLQQDKASLTRTLQHRIALHVADGLRYLHSAMIIYRDLKPHNVLLFTLYPNAAIIAKIADYGIAQYCCRMGIKTSEGTPGFRAPEVARGNVIYNQQADVYSFGLLLYDILTTGGRIVEGLKFPNEFDELEIQGKLPDPVKEYGCAPWPMVEKLIKQCLKENPQERPTSAQVFDILNSAELVCLTRRILLPKNVIVECMVATHHNSRNASIWLGCGHTDRGQLSFLDLNTEGYTSEEVADSRILCLALVHLPVEKESWIVSGTQSGTLLVINTEDGKKRHTLEKMTDSVTCLYCNSFSKQSKQKNFLLVGTADGKLAIFEDKTVKLKGAAPLKILNIGNVSTPLMCLSESTNSTERNVMWGGCGTKIFSFSNDFTIQKLIETRTSQLFDYAAFSDSNIITVVVDTALYIAKQNSPVVEVWDKKTEKLCGLIDCVHFLREVMVKENKESKHKMSYSGRVKTLCLQKNTALWIGTGGGHILLLDLSTRRLIRVIYNFCNSVRVMMTAQLGSLKNVMLVLGYNRKNTEGTQKQKEIQSCLTVWDINLPHEVQNLEKHIEVRKELAEKMRRTSVE
notes: LRRK2, human, carboxy-terminal catalytic half with the ROC, COR, kinase and WD40 domains; also called p.S2345D; WD40 dimerization interface mutant; source: Sf9 insect cells, baculovirus, purified (Ni-NTA, SP Sepharose, TEV cleavage, second Ni-NTA, S200 gel filtration); not shown: His6-Z, N-terminal, cleaved
Turning to B1, the binding result is on record as “binds”.

B2: LRRK2^RCKW-G2019S (domain or fragment, human)
chain: B1 chain with G693S, D1019S
notes: LRRK2, human, carboxy-terminal catalytic half with the ROC, COR, kinase and WD40 domains, with the PD-linked mutation p.G2019S; also called LRRK2^RCKW carrying p.G2019S; source: Sf9 insect cells, baculovirus, purified (Ni-NTA, SP Sepharose, TEV cleavage, second Ni-NTA, S200 gel filtration); not shown: His6-Z, N-terminal, cleaved
As to B2, the binding result is recorded as “binds”.

(Values after paper PMC9758056, “Structural basis for Parkinson’s disease-linked LRRK2’s binding to microtubules” (Nature Structural & Molecular Biology, 2022).)
